Experimental data: patent publication US20150344570A1 (published 2015)
Where a chain is given by its changes, count along the chain named. Numbers in names are those of the source.

B1: H240-Kn199/H240-Hl068/L73-k0 (antibody, human IgG1, kappa)
heavy 1: QDQLVQSGAEVKKPGASVKVSCKASGFNIKDTYIQWVRQAPGQGLEWMGRIDPLRKQTKYREKFEGRVTITADTSTNTAYMELSSLRSEDTAVYYCVRSGREFDYWGQGTLVTVSSASTKGPSVFPLAPSSKSTSGGTAALGCLVKDYFPEPVTVSWNSGALTSGVHTFPAVLQSSGLYSLSSVVTVPSSSLGTQTYICNVNHKPSNTKVDKKVEPKSCDKTHTCPPCPAPELYWGPMVFLFPPKPKDTLMISRTPEVTCVVVDVSDEDPEVKFNWYVDGVEVHNAKTKPREEQYNATYRVVSVLTVLHQDWLNGKEYKCKVSNKDLPAPIEKTISKAKGQPREPQVCTLPPSRDELTKNQVSLWCLVKGFYPSDIAVEWESNGQPENNYKTTPPVLDSDGSFFLYSKLTVDKSRWQQGNVFSCSVMHEALHNHYTQKSLSLSP
heavy 2: QDQLVQSGAEVKKPGASVKVSCKASGFNIKDTYIQWVRQAPGQGLEWMGRIDPLRKQTKYREKFEGRVTITADTSTNTAYMELSSLRSEDTAVYYCVRSGREFDYWGQGTLVTVSSASTKGPSVFPLAPSSKSTSGGTAALGCLVKDYFPEPVTVSWNSGALTSGVHTFPAVLQSSGLYSLSSVVTVPSSSLGTQTYICNVNHKPSNTKVDKKVEPKSCDKTHTCPPCPAPELLGGPSVFLFPPKPKDTLMISRTPEVTCVVVDVSHEEPEVKFNWYVDGVEVHNAKTKPREEQYNSTYRVVSVLTVLHQDWLNGKEYKCKVSNDALPKPIEETISKAKGQPREPQVYTLPPSRCELTKNQVSLSCAVKGFYPSDIAVEWESNGQPENNYKTTPPVLDSDGSFFLVSKLTVDKSRWQQGNVFSCSVMHEALHNHYTQKSLSLSP
light: DIQMTQSPSSLSASVGDRVTITCRASQDIHKYIAWYQQKPGQAPRLLIQYTSTLQPGVPSRFSGSGSGTDYTFTISSLQPEDIATYYCLQYEQLRTFGGGTKVEIKRTVAAPSVFIFPPSDEQLKSGTASVVCLLNNFYPREAKVQWKVDNALQSGNSQESVTEQDSKDSTYSLSSTLTLSKADYEKHKVYACEVTHQGLSSPVTKSFNRGEC
notes: Anti-epiregulin heterodimerized IgG1, knobs-into-holes
B2: H240-Kn204/H240-Hl211/L73-k0 (antibody, human IgG1, kappa)
heavy 1: B1 heavy 1 with L233Y, Y234L, W235G, M238S, D267H, K289Y, Y295W, A297S, D326A
heavy 2: B1 heavy 2 with S238D, E269D, D325K, K329M, E333V
light: B1 light
notes: Anti-epiregulin heterodimerized IgG1, knobs-into-holes; L234Y/K290Y/Y296W in one H chain, S239D/A330M/K334V in the other
B3: H240-Kn203/H240-Hl068/L73-k0 (antibody, human IgG1, kappa)
heavy 1: B1 heavy 1 with L233F
heavy 2: B1 heavy 2
light: B1 light
notes: as for B1
B4: H240-Kn202/H240-Hl076/L73-k0 (antibody, human IgG1, kappa)
heavy 1: B1 heavy 1 with L233E, Y234Q, D269E, D326A
heavy 2: B1 heavy 2 with K329M
light: B1 light
notes: as for B1
B5: H240-Kn201/H240-Hl076/L73-k0 (antibody, human IgG1, kappa)
heavy 1: B1 heavy 1 with L233F, Y234Q, D269E, D326A
heavy 2: B1 heavy 2 with K329M
light: B1 light
notes: as for B1
B6: H240-Kn200/H240-Hl076/L73-k0 (antibody, human IgG1, kappa)
heavy 1: B1 heavy 1 with L233S, Y234Q, D269E, D326A
heavy 2: B1 heavy 2 with K329M
light: B1 light
notes: as for B1

molecular target: T1, FcgRIIaR (human, UniProt P12318 34-217); test: SPR (Biacore); KD of H240-Kn033/H240-Hl033/L73-k0 divided by KD of this variant
T1 construct: extracellular domain; also called FcγRIIa R; FcgRIIa type R; not shown: His tag attached to the C terminus
T1 sequence (looked up): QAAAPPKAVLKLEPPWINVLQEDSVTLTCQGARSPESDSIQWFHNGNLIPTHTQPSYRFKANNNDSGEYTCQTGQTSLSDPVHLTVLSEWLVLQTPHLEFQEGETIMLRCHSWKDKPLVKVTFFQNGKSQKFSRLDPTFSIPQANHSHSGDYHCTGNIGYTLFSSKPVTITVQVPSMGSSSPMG
Experimental: (§1) H240-Kn204/H240-Hl211/L73-k0 and H240-Kn205/H240-Hl212/L73-k0 were prepared according to the method of Reference Example 1, by combining H240-Kn204 as one of the H chains and L73-k0 as the L chains with H240-Hl211 as the other H chain, and by combining H240-Kn205 as one of the H chains and L73-k0 as the L chains with H240-Hl212 as the other H chain, and then expressing them. The binding of the prepared variants to FcgRIa, FcgRIIaR, FcgRIIaH, FcgRIIb, FcgRIIIaF, and FcgRIIIaV was measured according to the method of Reference Example 8.
(§2) “fold 2aR”, “fold 2aH”, “fold 2b”, “fold 3aF”, and “fold 3aV” show the relative binding activity of each variant to FcgRIIaR, FcgRIIaH, FcgRIIb, FcgRIIIaF, and FcgRIIIaV, respectively, when the binding activity of H240-Kn033/H240-Hl033/L73-k0, a variant produced by introducing only alterations that promote formation of a heterodimerized antibody into a native IgG1, is defined as 1. Specifically, they are values obtained by dividing the KD value of H240-Kn033/H240-Hl033/L73-k0 for each FcgR by the KD value of an individual variant for each FcgR.
(§3) Analysis of interaction between objective antibody and the FcγR was carried out using Biacore T100 (GE Healthcare), Biacore T200, Biacore A100, and Biacore 4000. HBS-EP+ (GE Healthcare) was used as the running buffer, and the measurement temperature was set to 25° C. Chips produced by immobilizing the antigen peptide by the amine coupling method to a Series S sensor Chip CM5 (GE Healthcare), chips produced by allowing preliminarily biotinylated antigen peptides to interact with and immobilize onto a Series S Sensor Chip SA (certified) (GE Healthcare), chips produced by immobilizing Protein L (ACTIGEN, BioVision) to Series S Sencor Chip CM5 (GE Healthcare), or chips produced by immobilizing Protein A/G (Thermo Scientific) to Series S Sencor Chip CM5 (GE Healthcare) were used. Antibodies of interest were captured onto these chips, and allowed to interact to each FcγR diluted with running buffer.

Row | Binder | fold 2aR [fold]
1 | B1 | 37
2 | B2 | 1.2
3 | B3 | 16.1
4 | B4 | 1.2
5 | B5 | 1
6 | B6 | 0.9

molecular target: T2, FcgRIIaH (human, UniProt P12318 34-217); test: as above
T2 construct: extracellular domain; also called FcγRIIa H; FcgRIIa type H; not shown: His tag attached to the C terminus
T2 sequence (looked up): T1 sequence (looked up) with R134H
Experimental: as §1, §2, §3

Row | Binder | fold 2aH [fold]
7 | B1 | 19.3
8 | B2 | 0.7
9 | B3 | 10.6
10 | B4 | 1.4
11 | B5 | 3.7
12 | B6 | 2.3

molecular target: T3, FcgRIIb (human, UniProt P31994 43-217); test: as above
T3 construct: extracellular domain; also called FcγRIIb; 2b; not shown: His tag attached to the C terminus
T3 sequence (looked up): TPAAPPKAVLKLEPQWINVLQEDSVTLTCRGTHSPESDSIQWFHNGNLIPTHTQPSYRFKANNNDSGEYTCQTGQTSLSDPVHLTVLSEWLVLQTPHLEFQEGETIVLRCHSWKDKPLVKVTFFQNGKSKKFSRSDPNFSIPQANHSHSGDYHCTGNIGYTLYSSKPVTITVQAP
Experimental: as §1, §2, §3

Row | Binder | fold 2b [fold]
13 | B1 | 25.4
14 | B2 | 2.5
15 | B3 | 12.2
16 | B4 | 0.8
17 | B5 | 0.6
18 | B6 | 0.5

molecular target: T4, FcgRIIIaF (human, UniProt P08637 17-208); test: as above
T4 construct: extracellular domain; also called FcγRIIIa F; 3aF; not shown: His tag attached to the C terminus
Experimental: as §1, §2, §3

T4 sequence (P08637 17-208): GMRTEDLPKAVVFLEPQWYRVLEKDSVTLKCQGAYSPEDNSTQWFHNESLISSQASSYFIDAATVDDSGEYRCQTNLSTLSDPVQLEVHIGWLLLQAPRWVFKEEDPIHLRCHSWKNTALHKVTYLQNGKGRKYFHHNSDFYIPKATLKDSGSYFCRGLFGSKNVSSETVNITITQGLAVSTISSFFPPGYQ

Row | Binder | fold 3aF [fold]
19 | B1 | 126
20 | B2 | 20.7
21 | B3 | 85.3
22 | B4 | 181
23 | B5 | 161
24 | B6 | 121

molecular target: T5, FcgRIIIaV (human, UniProt P08637 17-208); test: as above
T5 construct: extracellular domain; also called FcγRIIIa V; 3aV; not shown: His tag attached to the C terminus
Experimental: as §1, §2, §3

T5 sequence (P08637 17-208 F176V limits assumed): as the sequence (P08637 17-208) above, with F160V counted along it

Row | Binder | fold 3aV [fold]
25 | B1 | 117
26 | B2 | 6.5
27 | B3 | 63.2
28 | B4 | 126
29 | B5 | 133
30 | B6 | 81.4
